Experiments:
Assay in all cases: MTAP substrate assay, coupled spectrophotometric (adenine, xanthine oxidase)
Type in all cases: biochemical, human
Conditions in all cases: other: substrate of MTAP, 37° C.
[1] = substrate: CC(C)(C)SC[C@H]1O[C@@H](n2cnc3c(N)ncnc32)[C@H](O)[C@@H]1O
Experimental: (§1) An enzymatic assay to determine the activity of MTAP against a given substrate was performed. Human MTAP containing an N-terminal six-histidine tag was expressed in E. coli BL21 DE3 cells. The protein was purified to homogeneity by Ni2+ affinity chromatography. Enzymatic activity was measured using a coupled spectrophotometric assay designed to monitor the reaction product adenine (Savarese, T. M., Crabtree, G. W., and Parks, R. E. Jr., (1980) Biochem. Pharmacol. 30, 189-199). Various concentrations of the indicated 5′-deoxymethylthio adenosine (MTA) or substrate were incubated in assay buffer (40 mM potassium phosphate buffer, 1 mM, and DTT 0.8 units/ml xanthine oxidase coupling enzyme) for 5 minutes at 37° C. The reaction was initiated by the addition of MTAP. The exact concentration of enzyme used varied for each substrate tested and ranged from 2 nM to 500 nM. Activity as a function of enzyme concentration was determined for each substrate tested to ensure that the appropriate enzyme concentration was used. Activity was detected by continuous monitoring of absorbance at 305 nm for 10 minutes (ΔE=15,500 M^−1).
(§2) Library compounds (10 and 50 uM) were tested using the assay described above with 2 nM MTAP enzyme. The resultant initial velocities are reported as a percentage of the initial velocity observed when MTA is the substrate. MTA controls, 10 and 50 uM concentrations, were run on each plate alongside the library compounds.

[2] = substrate: CC(C)CSC[C@@H]1O[C@H](n2cnc3c(N)ncnc32)[C@H](O)[C@@H]1O
Experimental: as §1, §2

[3] = substrate: CCN(C)C(=O)[C@H]1O[C@@H](n2cnc3c(N)ncnc32)[C@H](O)[C@@H]1O
Experimental: as §1, §2

[4] = substrate: COC[C@H]1O[C@@H](n2cnc3c(N)ncnc32)[C@H](O)[C@@H]1O
Experimental: as §1, §2

[5] = substrate: COc1ccc(SC[C@H]2O[C@@H](n3cnc4c(N)ncnc43)[C@H](O)[C@@H]2O)cc1
Experimental: as §1, §2

[6] = substrate: COc1cccc(SC[C@H]2O[C@@H](n3cnc4c(N)ncnc43)[C@H](O)[C@@H]2O)c1
Experimental: as §1, §2

[7] = substrate: CSC[C@H]1O[C@@H](n2cnc3c(N)ncnc32)C[C@@H]1O
Experimental: as §1, §2

[8] = substrate: Cc1cccc(CSC[C@H]2O[C@@H](n3cnc4c(N)ncnc43)[C@H](O)[C@@H]2O)c1
Experimental: as §1, §2

[9] = substrate: Cc1ccccc1SC[C@H]1O[C@@H](n2cnc3c(N)ncnc32)[C@H](O)[C@@H]1O
Experimental: as §1, §2

[10] = substrate: NCCSC[C@H]1O[C@@H](n2cnc3c(N)ncnc32)[C@H](O)[C@@H]1O
Experimental: as §1, §2

[11] = substrate: Nc1ncnc2c1ncn2[C@@H]1O[C@H](CNc2ccccc2)[C@@H](O)[C@H]1O
Experimental: as §1, §2

[12] = substrate: Nc1ncnc2c1ncn2[C@@H]1O[C@H](COc2cccnc2)[C@@H](O)[C@H]1O
Experimental: as §1, §2

[13] = substrate: Nc1ncnc2c1ncn2[C@@H]1O[C@H](CSC2CCCC2)[C@@H](O)[C@H]1O
Experimental: as §1, §2

[14] = substrate: Nc1ncnc2c1ncn2[C@@H]1O[C@H](CSC2CCCCC2)[C@@H](O)[C@H]1O
Experimental: as §1, §2

[15] = substrate: Nc1ncnc2c1ncn2[C@@H]1O[C@H](CSCCCc2ccccc2)[C@@H](O)[C@H]1O
Experimental: as §1, §2

[16] = substrate: Nc1ncnc2c1ncn2[C@@H]1O[C@H](CSCCc2ccccc2)[C@@H](O)[C@H]1O
Experimental: as §1, §2

[17] = substrate: Nc1ncnc2c1ncn2[C@@H]1O[C@H](CSCc2ccc(F)cc2)[C@@H](O)[C@H]1O
Experimental: as §1, §2

[18] = substrate: Nc1ncnc2c1ncn2[C@@H]1O[C@H](CSc2ncc[nH]2)[C@@H](O)[C@H]1O
Experimental: as §1, §2

[19] = substrate: Nc1ncnc2c1ncn2[C@@H]1O[C@H](CSc2nccs2)[C@@H](O)[C@H]1O
Experimental: as §1, §2

B1: Human MTAP (Homo sapiens) (protein)
chain: MASGTTTTAVKIGIIGGTGLDDPEILEGRTEKYVDTPFGKPSDALILGKIKNVDCVLLARHGRQHTIMPSKVNYQANIWALKEEGCTHVIVTTACGSLREEIQPGDIVIIDQFIDRTTMRPQSFYDGSHSCARGVCHIPMAEPFCPKTREVLIETAKKLGLRCHSKGTMVTIEGPRFSSRAESFMFRTWGADVINMTTVPEVVLAKEAGICYASIAMATDYDCWKEHEEAVSVDRVLKTLKENANKAKSLLLTTIPQIGSTEWSETLHNLKNMAQFSVLLPRH
notes: six-histidine tag (His6) (N); made in house; host or cells: E. coli BL21 DE3
[1]
  Km: 17 µM
  kcat: 0.85 s⁻¹
[2]
  Km: 3.1 µM
  kcat: 2.3 s⁻¹
[3]
  Km: 300 µM
  kcat: 0.8 s⁻¹
[4]
  Km: 250 µM
  kcat: 0.006 s⁻¹
[5]
  Km: 7 µM
  kcat: 0.8 s⁻¹
[6]
  Km: 2.2 µM
  kcat: 1.4 s⁻¹
[7]
  Km: 3.3 µM
  kcat: 0.76 s⁻¹
[8]
  Km: 4 µM
  kcat: 1.82 s⁻¹
[9]
  Km: 5.6 µM
  kcat: 0.175 s⁻¹
[10]
  Km: 390 µM
  kcat: 0.141 s⁻¹
[11]
  Km: 8.5 µM
  kcat: 2.02 s⁻¹
[12]
  Km: 33 µM
  kcat: 0.126 s⁻¹
[13]
  Km: 3.2 µM
  kcat: 1.5 s⁻¹
[14]
  Km: 3.5 µM
  kcat: 1.57 s⁻¹
[15]
  Km: 2.8 µM
  kcat: 2.16 s⁻¹
[16]
  Km: 5 µM
  kcat: 2.14 s⁻¹
[17]
  Km: 5.4 µM
  kcat: 2.24 s⁻¹
[18]
  Km: 9 µM
  kcat: 3.8 s⁻¹
[19]
  Km: 3.4 µM
  kcat: 2.49 s⁻¹

— patent US20040043959A1, “Combination therapies for treating methylthioadenosine phosphorylase deficient cells” (priority 2002, published 2004)
